Laboratory results from patent publication US20210238276A1 (INTEGRAL MOLECULAR, published 2021).
Changes are numbered by the printed parent chain.

Columns and labels:
Test in all cases: flow cytometry, alanine-scan library in HEK-293T, with cytochalasin B
[1] = biological target: T1, hsGLUT4 I313A (human, UniProt P14672 1-509)
T1 sequence: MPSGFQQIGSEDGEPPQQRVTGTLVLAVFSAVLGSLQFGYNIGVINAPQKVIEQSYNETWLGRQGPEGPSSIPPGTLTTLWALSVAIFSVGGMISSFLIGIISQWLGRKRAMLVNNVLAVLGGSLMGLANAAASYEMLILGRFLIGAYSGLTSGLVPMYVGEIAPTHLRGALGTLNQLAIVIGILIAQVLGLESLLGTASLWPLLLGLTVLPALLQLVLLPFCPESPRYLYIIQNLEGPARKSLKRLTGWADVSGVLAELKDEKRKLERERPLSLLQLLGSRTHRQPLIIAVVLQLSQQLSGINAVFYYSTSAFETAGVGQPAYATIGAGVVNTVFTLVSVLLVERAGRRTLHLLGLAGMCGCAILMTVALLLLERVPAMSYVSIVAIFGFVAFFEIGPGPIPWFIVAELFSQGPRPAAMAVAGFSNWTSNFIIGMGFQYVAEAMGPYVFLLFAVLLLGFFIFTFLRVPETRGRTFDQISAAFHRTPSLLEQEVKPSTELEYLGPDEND
Method in brief: (§1)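 HEK-293T cells expressing individual GLUT4 alanine mutants were stained 48 h post-transfection with anti-GLUT4 scFv MAbs (2 μg/ml), then biotinylated secondary and streptavidin-PerCP, and read by high-throughput flow cytometry. Where used, cytochalasin B (10 uM final) was given for 30 min before and during primary antibody staining.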

[2] = biological target: T2, hsGLUT4 D506A (human, UniProt P14672 1-509)
T2 sequence: T1 sequence with A313I, D506A
Method in brief: as §1

[3] = biological target: T3, hsGLUT4 G504A (human, UniProt P14672 1-509)
T3 sequence: T1 sequence with A313I, G504A
Method in brief: as §1

[4] = biological target: T4, hsGLUT4 Y502A (human, UniProt P14672 1-509)
T4 sequence: T1 sequence with A313I, Y502A
Method in brief: as §1

% of binding to wild type GLUT4 [1]: 15% | % of binding to wild type GLUT4 [2]: 60% | % of binding to wild type GLUT4 [3]: 71% | % of binding to wild type GLUT4 [4]: 94%
B1: AB102 (Fc fusion)
scFv: ALTQPSSVSANLGGTVKITCSGGGSYGYGWYQQKSPGSAPVTVIYSNDQRPSDIPSRFSGSKSGSTATLTITGVRAEDEAIYYCGSTDSDYVGIFGAGTTLTVLGQSSRSSGGGGSSGGGGSAVTLDESGGGLQTPGGTLSLVCKASGFDFSSYATIWVRQAPGKGLEWVAGISGTGTGSSTGYAPAVKGRATISRDNGQSTVRLQLNNLRAEDTGSYFCAKSTGYGDSWIYPDSIDAWGHGTEVIVSS
notes: also called MAb AB102; not shown: Fc fragment of human IgG1, cloned in frame with the scFv
